Legend:
[1] = Liposome leakage (carboxyfluorescein release); type: biochemical; conditions: pH 6.0, % ± SD of leakage with Triton X-100, CF fluorescence 520 nm, 37°C, at least triplicate, DOPC/cholesterol liposomes
Procedure: Dry lipid films were prepared by dissolving dioleoylphosphatidylcholine (1,2-dioleoyl-sn-Glycero-3-phoshocholine, >99% purity, Avanti Polar Lipids, Alabaster, AL) (60 mol%) (DOPC) and either ergosterol or cholesterol (both >99% purity, Sigma) (40 mol%) in chlorofom, and then removing the solvent by evaporation under vacuum overnight. Subsequently, buffer (10 mM Tris, pH 7.4) was added together with 0.1 M carboxyfluorescein (CF) (Sigma, St Louis, MO). After hydration, the lipid mixture was subjected to eight freeze-thaw cycles consisting of freezing in liquid nitrogen and heating to 60°C. Unilamellar liposomes of about Ø140 nm were generated by multiple extrusions through polycarbonate filters (pore size 100 nm) mounted in a LipoFastminiextruder (Avestin, Ottawa, Canada) at 22°C. Untrapped CF was then removed by two gel filtrations (Sephadex G-50) at 22°C, with Tris buffer as eluent. CF release was determined by monitoring the emitted fluorescence at 520 nm from liposome dispersions (10 mM lipid in 10 mM Tris). An absolute leakage scale was obtained by disrupting the liposomes at the end of the experiment through addition of 0.8 mM Triton X100 (Sigma, St Louis, MO), causing 100% release and dequenching of CF. Although calcein is frequently used for pH-dependent leakage studies, the high charge of this dye has been noted to influence its leakage behavior in the presence of highly cationic peptides. Instead, therefore, CF was used as a leakage marker at both pH 6.0 and 7.4, avoiding pH-dependent fluorescence effects through neutralization prior to probing the limiting leakage in case of pH 6.0 leakage. Throughout, a SPEX-fluorolog 1650 0.22-m double spectrometer (SPEX Industries, Edison, NJ) was used for the liposome leakage assay. Measurements were performed in at least triplicate at 37°C.

[2] = Size exclusion chromatography (dimerization); type: physicochemical; conditions: pH 7.5; 50 mM Tris, 150 mM NaCl; 1 mM calcium or 1 mM EDTA; HiPrep 16/60 Sephacryl S 100
From the text: Supplementary file ppat.1002625.s004.tif: Figure S3 Seize exclusion chromatography of MSP. […] (TIF) Click here for additional data file.

[3] = system: C. albicans; test: Scanning electron microscopy of C. albicans; type: cell-based, Candida albicans; conditions: 5 h; 20 µM MSP with 40 µM EDTA, or EDTA alone
Procedure: Specimens were washed with cacodylate buffer, and dehydrated with an ascending ethanol series from 50% (v/v) to absolute ethanol. The specimens were then subjected to critical-point drying in carbon dioxide, with absolute ethanol as intermediate solvent, mounted on aluminum holders, sputtered with 30 nm palladium/gold and examined in a JEOL JSM-350 scanning electron microscope. A small volume from each of the samples was also plated to check antifungal activity.

[4] = target: the molecule itself; test: SEC; HiPrep 16/60 Sephacryl S 100 column; 50 mM Tris, 150 mM NaCl, pH 7.5, with 1 mM calcium or 1 mM EDTA; native MSP
[5] = system: C. albicans; test: Antifungal gel overlay assay (AU-PAGE); type: cell-based, Candida albicans
Procedure: Gel overlay assay was performed essentially as described. Briefly, duplicate samples were run on native Acid Urea (AU-PAGE) gels in 5% (v/v) acetic acid at 100 V for 1 h 20 min. Candida albicans was grown over night, washed and resuspended in 10 mM NaPO4 pH 7.4 and approximately 1×10^5 CFU were added to 12 ml melted underlay agarose (10 mM NaPO4, pH 7.4, 0.03% SAB, 1% agarose type 1 (Sigma, St. Louis, MO)) and poured into a square Petri dish. One AU-gel was stained with Coomassie brilliant blue and one AU gel was washed 3×4 min in 10 mM NaPO4, pH 7.4 and then placed on top of the agarose and incubated for 4 h at 37°C. The AU gel was then removed and an overlay agarose (6% SAB, 1% agarosetype 1 (Sigma)) was poured on top of the underlay and incubated over night at 30°C. To make the clearing zones more visible, the agarose was stained with Coomassie brilliant blue followed by destaining.

[6] = system: S. agalactiae (SB1); test: Antibacterial CFU assay; type: cell-based; conditions: purified MSP 10 µM + 20 µM EDTA or recombinant dialyzed MSP 10 µM + 10 µM EDTA; neutral pH; data not shown
Procedure: (§1) E. coli (strain 37.4), S. aureus (strain 5120), S. pyogenes (M5 Manfredo), S. agalactiae (SB1), and E. faecalis (strain 2374) were grown in THY medium (Todd Hewitt with addition of yeast) and on THY agar plates at 37°C with 5% (v/v) CO2. Candida albicans was grown over night, washed, and resuspended in 10 mM Tris, 5 mM glucose, pH 7.4 or pH 4. Approximately 4×10^3 to 10^4 CFU of C. albicans were incubated with the test substance in low or neutral pH buffer for 4 h at 37°C. After incubation, the suspension was diluted and plated. Colonies were counted after two days incubation of the plates at 30°C. Bacteria from overnight cultures were inoculated in fresh medium and grown for 3 h, washed in 10 mM Tris, 5 mM glucose pH 7.4. Approximately 8×10^4 CFU were incubated with sample in 10 mM Tris, 5 mM glucose pH 7.4 or pH 4 for 1 h at 37°C, diluted, plated and incubated over night at 37°C and the colonies counted.

[7] = system: E. coli (strain 37.4); test: Antibacterial CFU assay; type: cell-based; conditions: purified MSP 10 µM + 20 µM EDTA or recombinant dialyzed MSP 10 µM + 10 µM EDTA; low and neutral pH; data not shown
Procedure: as §1

[8] = system: S. aureus (strain 5120); test: Antibacterial CFU assay; type: cell-based; conditions: purified MSP 10 µM + 20 µM EDTA or recombinant dialyzed MSP 10 µM + 10 µM EDTA; neutral pH; data not shown
Procedure: as §1

[9] = system: E. faecalis (strain 2374); test: Antibacterial CFU assay; type: cell-based; conditions: purified MSP 10 µM + 20 µM EDTA or recombinant dialyzed MSP 10 µM + 10 µM EDTA; low and neutral pH; data not shown
Procedure: as §1

[10] = system: S. pyogenes (M5 Manfredo); test: Antibacterial CFU assay; type: cell-based; conditions: purified MSP 10 µM + 20 µM EDTA or recombinant dialyzed MSP 10 µM + 10 µM EDTA; neutral pH; data not shown
Procedure: as §1

Molecule: RIFKKEDCKYI [MSP66–76, eleven residues at the very tip of the loop (residue 66–76)]
- Liposome leakage ([1]; +EDTA): 0%
- Liposome leakage ([1]; without EDTA): 0%

B1: β-microseminoprotein (natural protein, human, UniProt P08118 21-114, looked up)
chain: SCYFIPNEGVPGDSTRKCMDLKGNKHPINSEWQTDNCETCTCYETEISCCTLVSTPVGYDKDNCQRIFKKEDCKYIVVEKKDPKKTCSVSEWII
notes: human β-microseminoprotein (MSP, PSP94), native protein purified from seminal plasma; also called MSP; PSP94
- Oligomeric state on size exclusion chromatography [2]: eluted as a dimer
- Liposome leakage ([1]; +EDTA): 4±2%
- Liposome leakage ([1]; without EDTA): 0%
- Effect on C. albicans by scanning electron microscopy [3]: aggregated with disrupted membranes causing cell content leakage
- stoichiometry N [4]: 2
- Clearing zone in antifungal gel overlay assay [5]: displayed antifungal activity by producing a clearing zone
- Antibacterial activity in CFU assay [6]: no antibacterial activity
- Antibacterial activity in CFU assay [7]: no antibacterial activity
- Antibacterial activity in CFU assay [8]: no antibacterial activity
- Antibacterial activity in CFU assay [9]: no antibacterial activity
- Antibacterial activity in CFU assay [10]: no antibacterial activity

From paper PMC3320615, “β-Microseminoprotein Endows Post Coital Seminal Plasma with Potent Candidacidal Activity by a Calcium- and pH-Dependent Mechanism” (PLoS Pathogens, 2012)
